Laboratory results published in the supplement of paper PMC9170038.

Tested on: MS2 coat protein
Assay: apparent KD of MS2 coat protein; designed switch direction (-1 OFF switch, 1 ON switch): -1; higher = weaker reporter binding
Procedure, shortened: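 Each step of the titration lasted 0.8–1.5 h at the lowest concentration and 10–20 min at the highest. The protein, SNAP-549-labelled MS2 coat protein, went from 0.7 or 1.5 nM doubling to 3 µM over RNA switches transcribed on Illumina chips by stalled E. coli RNA polymerase. Normalised cluster fluorescence was curve-fitted, and the per-design median over clusters is given as apparent KD.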

[1] = input ligand: microRNA oligo, concentration not stated
[2] = Eterna round: R95, input ligand: microRNA oligo, concentration not stated
[3] = Eterna round: R95, input ligand: FMN 200 uM
[4] = Eterna round: R95, input ligand: none

| Sequence | apparent KD of MS2 coat protein (input ligand: FMN 200 uM) | apparent KD of MS2 coat protein [1] | apparent KD of MS2 coat protein (input ligand: none) | apparent KD of MS2 coat protein [2] | apparent KD of MS2 coat protein [3] | apparent KD of MS2 coat protein [4] |
| --- | --- | --- | --- | --- | --- | --- |
| CCUAGUUGGUAAGGAUAUCCUACACUAUUCUGACCCGUGCAAGCUACAUGAGGAUCACCCAUGUGGGAGAAGGUGCGUCAACGU [Design 10] (Eterna round: R96, puzzle: Exclusion NG 2) | 21.3 nM | 18.2 nM | 23.8 nM |  |  |  |
| CCUAUGUUAGGAUAUCGGCAUCCCGGGCAGGUAGCCAGGACCGAGAAGGGACAUGAGGAUCACCCAUGUCAAAU [Eternabot (Original) Solution 4] (Eterna round: R97, puzzle: Exclusion 4) | 15.9 nM |  | 19.1 nM |  |  |  |
| CCUCAGUGAGGAUAUGGUAGACACAAUCGGGAUUGAGAAGGCCAGAAGGUACAUGAGGAUCACCCAUGUAAUCA [Eternabot (L2) Solution 58] (Eterna round: R97, puzzle: Exclusion 4) | 27.2 nM |  | 21.9 nM |  |  |  |
| CCUCAUAUUUAGGAUAUGAUUGGUAAUUAUUAGUUAGAAGGAGGUACAUGAGGAUCACCCAUGUAAAAUUUUUU [-13.7, -10.8 kcal, 32% A] (Eterna round: R97, puzzle: Exclusion 6) | 19.7 nM |  | 19.6 nM |  |  |  |
| CCUCCACAUGAGGAUCACCCAUGUCAGGAUAUCGUGUGUUUUUUUUCGGUCUUGCGUGCGAGAAGGGACGUCUU (puzzle: Exclusion 1) |  |  |  | 32.5 nM |  |  |
| CCUCCCUGAGGAUAUCCACCCUCAUACAUGAGGAUCACCCAUGUUCAACCCUGGGUUCCCGGAGAAGGCAGUUUCC [Megrez-2.4] (Eterna round: R97, puzzle: Exclusion 5) | 226 nM |  | 235 nM |  |  |  |
| CCUCGACAUGAGGAUCACCCAUGUCAGGAUAUUGUGUUUUGGGUUUUUUACCUUUUGGCAAGAAGGGAUGUGUG [LRO-Excl1-19] (puzzle: Exclusion 1) |  |  |  | 14.4 nM |  |  |
| CCUCUACAUGAGGAUCACCCAUGUGAGGAUAUCAAAAUCAGGGCGGCUCCCUGACCCAUGAGAAGGUGCAUGGA [EX1 A.5] (Eterna round: R97, puzzle: Exclusion 1) | 31 nM |  | 16.8 nM |  |  |  |
| CCUCUACAUGAGGAUCACCCAUGUUAGGAUAUGCCGGCCGACCUCGGGUGUGUAAUACGCAGAAGGAACGUUAC [Eternabot (Original) Solution 49] (Eterna round: R97, puzzle: Exclusion 1) | 835 nM |  | 2390 nM |  |  |  |
| CCUUAGUCACAGGAUAUGCUCAUCUAAUGAUGAGCAGAAGGGUGAACAUGAGGAUCACCCAUGUUUAUCAAGGG [Omei Ex6 E3] (Eterna round: R97, puzzle: Exclusion 6) | 300 nM |  | 274 nM |  |  |  |
| CCUUUGUCAGGAUAUCAGAACGCGCUCGAAAGGAACGCAAAUGAGAAGGGACAUGAGGAUCACCCAUGUAAAGA [Enenrixe] (puzzle: Exclusion 4) |  |  |  | 42.8 nM | 158 nM | 45 nM |
| CCUUUGUCAGGAUAUCGUGCAUACAACGAAAGUUCUAUGUGCGAGAAGGGACAUGAGGAUCACCCAUGUUACGG [Omei Ex4 A3] (Eterna round: R97, puzzle: Exclusion 4) | 172 nM |  | 368 nM |  |  |  |
| CGAAUUCGUUAGGAUAUGAGGCAGAGGUCCGCCUCAGAAGGAAUGACAUGAGGAUCACCCAUGUAGACCCAAGG [Eternabot (Original) Solution 1] (Eterna round: R97, puzzle: Exclusion 6) | 18.9 nM |  | 19.1 nM |  |  |  |
| CGAGCUCAUGUGAGGAUAUACCUAUGGAUACAUAGGUAGAAGGCACAUGAGGAUCACCCAUGUCCUUGAGCUCG [jl-bmx4-4.59 Eli mod] (Eterna round: R97, puzzle: Brourd's mod of Exclusion 4) | 309 nM |  | 50.4 nM |  |  |  |
| CGAGCUGCUGUGAGGAUAUACCUGUGGGUGCGUGGGUAGAAGGCACAUGAGGAUCACCCAUGUCCUGCAGCUCG [salish99_bmx4_r4_105] (Eterna round: R97, puzzle: Brourd's mod of Exclusion 4) | 594 nM |  | 1060 nM |  |  |  |
| CGAUGAGGAGUGAGGAUAUCGUGUUCGAAAGAACGUGAGAAGGCACAUGAGGAUCACCCAUGUGAACCUUGUCG [Omei Ex4B A10] (Eterna round: R97, puzzle: Brourd's mod of Exclusion 4) | 22.5 nM |  | 15.8 nM |  |  |  |

| Sequence | apparent KD of MS2 coat protein (input ligand: FMN 200 uM) | apparent KD of MS2 coat protein [1] | apparent KD of MS2 coat protein (input ligand: none) | apparent KD of MS2 coat protein [2] | apparent KD of MS2 coat protein [3] | apparent KD of MS2 coat protein [4] |
| --- | --- | --- | --- | --- | --- | --- |
| CGAUGUUAUGUCAGGAUAUACAUUGCGAAAGCAAUGUAGAAGGGACAUGAGGAUCACCCAUGUCCUAACCAUCG [Omei A 3] (puzzle: Brourd's mod of Exclusion 4) |  |  |  | 12.7 nM |  |  |
| CGCGACUCAGGAUAUACAUGAGGAUCACCCAUGUGGAACGACUGGGUCGAUAAAAGGUGUAGAAGGGAGGAAAA [Invebies] (puzzle: Exclusion 3) |  |  |  | 12.6 nM | 15.4 nM | 15.4 nM |
| CGCGCCUGGGUCGAACGACACAUGAGGAUCACCCAUGUCAGAGGCGUAGAAUGCACAAGCUUUGACCUCGUUACGCU [Eternabot (L2) Solution 39] (Eterna round: R97, puzzle: Sensor, turn-off variant 1) | 18 nM |  | 18.5 nM |  |  |  |
| CGCGCCUUUGUCAGGAUAUUCGGACGAGCCCGGCCGGAGAAGGGACUUGAGGAUCACCCAAGUGACGCGAAGAC [Anrearra] (Eterna round: R97, puzzle: Brourd's mod of Exclusion 4) | 35.1 nM |  | 31.9 nM |  |  |  |
| CGCUGGACAGGAUAUGUUCUUGGGCACUUGAGGAUCACCCAAGUCAUCGGGACAUCAGGCACAGAAGGGUUGUUGG [salish99_ex5_r4_028] (Eterna round: R97, puzzle: Exclusion 5) | 25.5 nM |  | 27.1 nM |  |  |  |
| CGGCAUGUCUGAGGAUAUCUGCACGUUUAGUGCAGAGAAGGCAGAACAUGAGGAUCACCCAUGUAGAUCAUUAACCGAUUAAUU [ENG1/7-A2] (Eterna round: R96, puzzle: Exclusion NG 1) |  | 182 nM |  |  |  |  |
| CGGCGACAUGAGGAUCACCCAUGUGAGGAUAUGACGGGAAAAGCGUGAGCAGUUUGUGGCAGAAGGCGCGUAGG [salish99_ex1_r4_083] (Eterna round: R97, puzzle: Exclusion 1) | 23.5 nM |  | 117 nM |  |  |  |
| CGGGCAUGAGGAUAUCGAGGUUAGUACAUGAGGAUCACCCAUGUUAUCCAGGUGUCGGUUCGAGAAGGCAUGGCCG [LRO-Ex5-11] (puzzle: Exclusion 5) |  |  |  | 230 nM | 464 nM | 340 nM |
| CGGGCCGGCCUUCCGGCCGGCCCGACAUGAGGAUCACCCAUGUAGGAUAUCCCGGCUGCCGGCCGGGAGAAGGGCGUGCGCUUU [-47.6, -45.1 kcal, 14% A] (Eterna round: R96, puzzle: Exclusion NG 3) | 36.5 nM | 20.8 nM | 36.5 nM |  |  |  |
| CGGUAAAUAGGAUAUACAUGAGGAUCACCCAUGUUCCAUAGCACUCGGAGGGUUCCCAGUAGAAGGGUUGGCCU [EX3 C.17] (Eterna round: R97, puzzle: Exclusion 3) | 16 nM |  | 19.4 nM |  |  |  |
| CGGUACUGAGGAUAUACAUGAGGAUCACCCAUGUGUACUAGCUAGCGUACUGGCAUUAGUAGAAGGCGGUGCUG [JL-ex3-3.20 Brourd mod] (puzzle: Exclusion 3) |  |  |  | 11.5 nM | 19.8 nM | 13.2 nM |
| CGGUGACAUGAGGAUCACCCAUGUCAGGAUAUCCAGGUCGACAAUGAGCUGUACGAUUGGAGAAGGGAUACGGG [EX1 C.9] (Eterna round: R97, puzzle: Exclusion 1) | 20.6 nM |  | 23.7 nM |  |  |  |
| CGGUGCUCGUGGAAACAUGAGGAUCACCCAUGUAGAGUUAGCGAGGAUAUCGGUAACACACAUCACGAGAAGGCGCGAACCUGU [Ex NG3 #6] (Eterna round: R96, puzzle: Exclusion NG 3) | 31.7 nM | 12.1 nM | 20.8 nM |  |  |  |
| CGGUGCUGAGGAUAUACAUGAGGAUCACCCAUGUGUUCCAGCUAGCGUACUGGCAGAUGUAGAAGGCGGUACUG [JL-ex3-3.42 Brourd mod] (puzzle: Exclusion 3) |  |  |  | 19.9 nM | 78.9 nM | 19 nM |
| CGGUGUAGAGGAUAUACGUGAAUAUAAGAACAUAAUAAUUAACAUGAGGAUCACCCAUGUAGAAGGCUAUAGCG [JR_Ex2_Sub081] (Eterna round: R97, puzzle: Exclusion 2) | 34.3 nM |  | 16.7 nM |  |  |  |
| CGGUGUAGAGGAUAUACGUGAAUUUUGUUAUUUUUUAAUUUACAUGAGGAUCACCCAUGUAGAAGGCUAUAGCG [JR_Ex2_Sub086] (Eterna round: R97, puzzle: Exclusion 2) | 23.4 nM |  | 21.9 nM |  |  |  |
